Test results from patent US20240376218A1 (published 2024).

Legend:
Assay in all cases: cell-based or functional assay
[1] = biological target: T1, human CCR8 (human, UniProt P51685 1-355)
[2] = biological target: T1, human CCR8; remark: listed apart in the source
[3] = biological target: T1, human CCR8; remark: listed apart in the source
[4] = biological target: T1, human CCR8; remark: listed apart in the source
[5] = biological target: T1, human CCR8; remark: listed apart in the source
[6] = biological target: human CCR8 (human, UniProt P51685 1-355); remark: listed apart in the source
[7] = biological target: human CCR8 (P51685_CCR8_HUMAN) (human, UniProt P51685 1-355)

Row | ADCP EC50 (pM); activated human Tregs donor 1212 + M2c donor 3 [1] [pM] | ADCP Max Response (%); activated human Tregs donor 1212 + M2c donor 3 [1] [%] | ADCP EC50 (pM); activated human Tregs donor 1212 + M2c donor 4 [2] [pM] | ADCP Max Response (%); activated human Tregs donor 1212 + M2c donor 4 [2] [%] | ADCP EC50 (pM); activated human Tregs donor 1163 + M2c donor 2 [3] [pM] | ADCP Max Response (%); activated human Tregs donor 1163 + M2c donor 2 [3] [%] | ADCP EC50 (pM); activated human Tregs donor 1163 + M2c donor 1 [4] [pM] | ADCP Max Response (%); activated human Tregs donor 1163 + M2c donor 1 [4] [%] | ADCP Max Response (%); activated human Tregs donor 1212 + M2c macrophages [5] [%] | Binder | other results
1 | 163 | 14 | 563 | 23 | 300 | 36 | 766 | 44 |  | TPP-20965 (18206-gl-58-hIgG1wt-Lambda), afucosylated (antibody, V domains shown, afucosylated (no fucose on the N-glycan at N297)) VH: EVQLLESGGGLVQPGGSLRLSCAASGFTFSSYGMHWVRQAPGKGLEWVSAIKWGGGSTGYADSVKGRFTISRDNSKNTLYLQMNSLRAEDTAVYYCARGHHSGKDGRFFDYWGQGTLVTVSS VL: QSVLTQPPSVSGAPGQRVTISCTGSSSNIGAGYNVHWYQQLPGTAPKLLIYTNNRRPSGVPDRFSGSKSGTSASLAISGLRSEDEADYYCAAWDASLSGWVFGGGTKLTVLG | 
2 | 14 | 13 | 13.2 | 23 |  |  |  |  | 29 | TPP-20955 (18206-gl-47-hIgG1wt-Lambda), afucosylated (antibody, V domains shown, afucosylated (no fucose on the N-glycan at N297)) VH: EVQLLESGGGLVQPGGSLRLSCAASGFTFSSYGMHWVRQAPGKGLEWVSAIKWGGGSHGYADSVKGRFTISRDNSKNTLYLQMNSLRAEDTAVYYCARGHHKGYDGRFFDYWGQGTLVTVSS VL: QSVLTQPPSVSGAPGQRVTISCTGSSSNIGAGYNVHWYQQLPGTAPKLLIYTNNRRPSGVPDRFSGSKSGTSASLAISGLRSEDEADYYCAAWDASLSGWVFGGGTKLTVLG | ADCP EC50 (pM); activated human Tregs donor 1212 + M2c macrophages [5]: 408 pM
3 | 9.2 | 13 | 17.1 | 23 | 52.9 | 28 | 30.1 | 28 | 30 | TPP-21045 (17578-gl79-hIgG1-wt-Lambda), afucosylated (antibody, V domains shown, afucosylated (no fucose on the N-glycan at N297)) VH: EVQLLESGGGLVQPGGSLRLSCAASGFTFSSAWMSWVRQAPGKGLEWVSGISWSGGSTGYALSVKGRFTISRDNSKNTLYLQMNSLRAEDTAVYYCARTYSGHYGPFFDYWGQGTLVTVSS VL: not shown | ADCP EC50 (pM); activated human Tregs donor 1212 + M2c macrophages [5]: 1220 pM
4 |  |  |  |  | ~1.69e+07 | 18 |  | 14 |  | TPP-19546 (17578-gl33-hIgG1Lambda), wild type (antibody, V domains shown) VH: EVQLLESGGGLVQPGGSLRLSCAASGFTFSSAWMSWVRQAPGKGLEWVSGISWSGGSTGYADSVKGRFTISRDNSKNTLYLQMNSLRAEDTAVYYCARTYSGHYGPYFDYWGQGTLVTVSS VL: not shown | 
5 |  |  |  |  | 404 | 18 |  | 15 | 20 | TPP-19546 (17578-gl33-hIgG1Lambda), afucosylated (antibody, V domains shown, afucosylated (no fucose on the N-glycan at N297)) VH: EVQLLESGGGLVQPGGSLRLSCAASGFTFSSAWMSWVRQAPGKGLEWVSGISWSGGSTGYADSVKGRFTISRDNSKNTLYLQMNSLRAEDTAVYYCARTYSGHYGPYFDYWGQGTLVTVSS VL: not shown | 
6 |  |  |  |  |  |  |  |  |  | TPP-19546, afucosylated (antibody, human IgG1, lambda, V domains shown, afucosylated (no fucose on the N-glycan at N297)) VH: EVQLLESGGGLVQPGGSLRLSCAASGFTFSSAWMSWVRQAPGKGLEWVSGISWSGGSTGYADSVKGRFTISRDNSKNTLYLQMNSLRAEDTAVYYCARTYSGHYGPYFDYWGQGTLVTVSS VL: not shown | ADCC Max Response (%); activated human Tregs (Donor 1100) as target cells, NK92v effector cells [6]: 54%; ADCC hTreg EC50 (pM); activated human Tregs (Donor 1100) as target cells, NK92v effector cells [6]: 8840 pM
7 |  |  |  |  |  |  |  |  |  | TPP-17578 (497A-M128-B10-1-hIgG1Lambda), afucosylated (antibody, V domains shown, afucosylated N-glycan at N297) VH: EVQLLESGGGLVQPGGSLRLSCAASGFTFSNAWMSWVRQAPGKGLEWVSGINWNGGSTGYADSVKGRFTISRDNSKNTLYLQMNSLRAEDTAVYYCVRTYSGHYGPYFDNWGQGTLVTVSS VL: not shown | ADCC EC50, activated Tregs + NK92v, Donor 1213 [7]: 9.2 nM; ADCC EC50, activated Tregs + NK92v, Donor 1730 [7]: 19 nM; ADCC Max Response, activated Tregs + NK92v, Donor 1213 [7]: 25%; ADCC Max Response, activated Tregs + NK92v, Donor 1730 [7]: 38%
8 |  |  |  |  |  |  |  |  |  | TPP-17578 (497A-M128-B10-1-hIgG1Lambda), WT (antibody, V domains shown) VH: EVQLLESGGGLVQPGGSLRLSCAASGFTFSNAWMSWVRQAPGKGLEWVSGINWNGGSTGYADSVKGRFTISRDNSKNTLYLQMNSLRAEDTAVYYCVRTYSGHYGPYFDNWGQGTLVTVSS VL: not shown | ADCC EC50, activated Tregs + NK92v, Donor 1730 [7]: 197000 nM; ADCC Max Response, activated Tregs + NK92v, Donor 1213 [7]: 5%; ADCC Max Response, activated Tregs + NK92v, Donor 1730 [7]: 8%
9 |  |  |  |  | 162 | 27 | 130 | 27 |  | TPP-21045 (17578-gl79-hIgG1-wt-Lambda), wild type (antibody, V domains shown) VH: EVQLLESGGGLVQPGGSLRLSCAASGFTFSSAWMSWVRQAPGKGLEWVSGISWSGGSTGYALSVKGRFTISRDNSKNTLYLQMNSLRAEDTAVYYCARTYSGHYGPFFDYWGQGTLVTVSS VL: not shown | 
